Laboratory results from IntAct's records for PubMed 22493017.

B1: Biopolymer transport protein ExbD (Escherichia coli (strain K12)), P0ABV2 (parent)
chain: MAMHLNENLDDNGEMHDINVTPFIDVMLVLLIIFMVAAPLATVDVKVNLPASTSTPQPRPEKPVYLSVKADNSMFIGNDPVTDETMITALNALTEGKKDTTIFFRADKTVDYETLMKVMDTLHQAGYLKIGLVGEETAKAK
B2: Protein TonB (Escherichia coli (strain K12)), P02929 (parent)
chain: MTLDLPRRFPWPTLLSVCIHGAVVAGLLYTSVHQVIELPAPAQPISVTMVTPADLEPPQAVQPPPEPVVEPEPEPEPIPEPPKEAPVVIEKPKPKPKPKPKPVKKVQEQPKRDVKPVESRPASPFENTAPARLTSSTATAATSKPVTSVASGPRALSRNQPQYPARAQALRIEGQVKVKFDVTPDGRVDNVQILSAKPANMFEREVKNAMRRWRYEPGKPGSGIVVNILFKINGTTEIQ
partner: B1 chain

Variants of: B1
Conditions: with tonb_ecoli tonB, P02929

Question: For D25N, which “effect of a mutation on the interaction” value is on record?
Answer: decreasing interaction

Question: A92C was tested. Which “effect of a mutation on the interaction” value did it give?
Answer: increasing interaction

Question: How did the “effect of a mutation on the interaction” value turn out when T109C was run?
Answer: increasing interaction

Question: With K97C as the variant, how does the “effect of a mutation on the interaction” value read?
Answer: increasing interaction

Variants of: B2
Conditions: with exbd_ecoli exbD, P0ABV2

Question: F202C was tested. Which “effect of a mutation on the interaction” value did it give?
Answer: increasing interaction

Question: R166C was tested. Which “effect of a mutation on the interaction” value did it give?
Answer: increasing interaction

Question: Which “effect of a mutation on the interaction” value does the source give for Q168C here?
Answer: increasing interaction

Question: Which “effect of a mutation on the interaction” value does the source give for G152C here?
Answer: increasing interaction

Question: Which “effect of a mutation on the interaction” value does the source give for A150C here?
Answer: increasing interaction

Question: For P164C, which “effect of a mutation on the interaction” value is on record?
Answer: increasing interaction

Question: How did the “effect of a mutation on the interaction” value turn out when R212C was run?
Answer: increasing interaction

Question: Which “effect of a mutation on the interaction” value does the source give for N200C here?
Answer: increasing interaction

Question: With R204C as the variant, how does the “effect of a mutation on the interaction” value read?
Answer: increasing interaction

Question: L170C was tested. Which “effect of a mutation on the interaction” value did it give?
Answer: increasing interaction
